Target: the molecule itself
Assay: SEC; tag-free purified protein on Superose 6 10/300 GL, 25 mM Tris-HCl pH 7.5, 150 mM NaCl; oligomer judged from the elution volume; data not shown

B1: Glutamine synthetase from Providencia vermicola (enzyme, UniProt A0AAX3RWL7 1-469, looked up)
chain: MSSEHVLSLIEEHKIKFIDLRFTDTKGKEQHITIPAHQVNEDFFEEGKMFDGSSIGGWKGINESDMVLMPDPSTAMLDPFFADPTLIIRCDILEPGTMQGYDRDPRSISQRAEDFLRSSGIADTVLFGPEPEFFIFDDIRFGNSMHSSYYHIDDIEAAWNTGTKYEGGNKGHRPGVKGGYFPVPPVDSSQDLRSAMCTTMEEMGLVVEAHHHEVATAGQNEVACRFNTMTKKADETQIYKYVVHNVAHAYGKTATFMPKPLVGDNGSGMHCHMSLSKDGINLFAGDKYGGLSEMALYYIGGIIKHARALNAFTNPTTNSYKRLVPGFEAPVMLAYSARNRSASIRIPVVASTKARRIEVRFPDPAANPYLAFAAQLMAGLDGIINKIHPGDAMDKNLYDLPPEEAKEIPTVAGSLEEALNELDKNREFLTRGGVFTNDAIDAYIELLRNDIQRVRMTPHPLEFEMYYSV
notes: Glutamine synthetase (GSI beta type, EC 6.3.1.2) of Providencia vermicola strain CGS6, cloned from genomic DNA; ORF of 1410 base pairs encoding 469 amino acids; Cloned between BamHI and XhoI of pGEX-6P-1; also called PveGS; GS; source: E. coli BL21 (DE3), pGEX-6p-1-PveGS, purified (GST Gene Fusion System, eluted from the GST tag by 3C protease); copies: 12
stoichiometry N: 12
